Assay results: US20220145343A1 (priority 2019, published 2022)

Legend:
Assay in all cases: purified protein, by the assay type
[1] = tested on: CC(=O)N[C@H]1[C@H]([C@H](O)[C@H](O)CO)O[C@@](OCCCNC(=O)OCc2ccccc2)(C(=O)O)C[C@@H]1O; conditions: other: apparent, varying acceptor, 2 mM UDP-Gal, pH 6.5, 30° C.
[2] = tested on: CC(=O)N[C@H]1[C@H]([C@H](O)[C@H](O)CO)O[C@@](OCCCNC(=O)OCc2ccccc2)(C(=O)O)C[C@@H]1O[C@H]1O[C@H](CO[C@]2(C(=O)O)C[C@H](O)[C@@H](NC(C)=O)[C@H]([C@H](O)[C@H](O)CO)O2)[C@H](O)[C@H](O)[C@H]1O; conditions: other: apparent, varying acceptor, 2 mM UDP-Gal, pH 6.5, 30° C.
[3] = tested on: CC(=O)N[C@H]1[C@H]([C@H](O)[C@H](O)CO)O[C@@](OCCCNC(=O)OCc2ccccc2)(C(=O)O)C[C@@H]1O[C@H]1O[C@H](CO[C@]2(C(=O)O)C[C@H](O[C@H]3O[C@H](CO[C@]4(C(=O)O)C[C@H](O)[C@@H](NC(C)=O)[C@H]([C@H](O)[C@H](O)CO)O4)[C@H](O)[C@H](O)[C@H]3O)[C@@H](NC(C)=O)[C@H]([C@H](O)[C@H](O)CO)O2)[C@H](O)[C@H](O)[C@H]1O; conditions: other: apparent, varying acceptor, 2 mM UDP-Gal, pH 6.5, 30° C.
[4] = tested on: CC(=O)N[C@H]1[C@H]([C@H](O)[C@H](O)CO)O[C@@](OC[C@H]2O[C@H](O[C@H]3C[C@](OC[C@H]4O[C@H](O[C@H]5C[C@](OCCCNC(=O)OCc6ccccc6)(C(=O)O)O[C@@H]([C@H](O)[C@H](O)CO)[C@@H]5NC(C)=O)[C@H](O)[C@@H](O)[C@H]4O)(C(=O)O)O[C@@H]([C@H](O)[C@H](O)CO)[C@@H]3NC(C)=O)[C@H](O)[C@@H](O)[C@H]2O)(C(=O)O)C[C@@H]1O[C@H]1O[C@H](CO)[C@H](O)[C@H](O)[C@H]1O; conditions: other: apparent, varying acceptor, 10 mM CMP-Neu5Ac, pH 8.0, 30° C.
[5] = tested on: CC(=O)N[C@H]1[C@H]([C@H](O)[C@H](O)CO)O[C@@](OC[C@H]2O[C@H](O[C@H]3C[C@](OCCCNC(=O)OCc4ccccc4)(C(=O)O)O[C@@H]([C@H](O)[C@H](O)CO)[C@@H]3NC(C)=O)[C@H](O)[C@@H](O)[C@H]2O)(C(=O)O)C[C@@H]1O[C@H]1O[C@H](CO)[C@H](O)[C@H](O)[C@H]1O; conditions: other: apparent, varying acceptor, 10 mM CMP-Neu5Ac, pH 8.0, 30° C.
[6] = tested on: CC(=O)N[C@H]1[C@H]([C@H](O)[C@H](O)CO)O[C@@](OC[C@H]2O[C@H](O[C@H]3C[C@](OC[C@H]4O[C@H](O[C@H]5C[C@](OC[C@H]6O[C@H](O[C@H]7C[C@](OC[C@H]8O[C@H](O[C@H]9C[C@](OCCCNC(=O)OCc%10ccccc%10)(C(=O)O)O[C@@H]([C@H](O)[C@H](O)CO)[C@@H]9NC(C)=O)[C@H](O)[C@@H](O)[C@H]8O)(C(=O)O)O[C@@H]([C@H](O)[C@H](O)CO)[C@@H]7NC(C)=O)[C@H](O)[C@@H](O)[C@H]6O)(C(=O)O)O[C@@H]([C@H](O)[C@H](O)CO)[C@@H]5NC(C)=O)[C@H](O)[C@@H](O)[C@H]4O)(C(=O)O)O[C@@H]([C@H](O)[C@H](O)CO)[C@@H]3NC(C)=O)[C@H](O)[C@@H](O)[C@H]2O)(C(=O)O)C[C@@H]1O[C@H]1O[C@H](CO)[C@H](O)[C@H](O)[C@H]1O; conditions: other: apparent, varying acceptor, 10 mM CMP-Neu5Ac, pH 8.0, 30° C.
[7] = tested on: CC(=O)N[C@H]1[C@H]([C@H](O)[C@H](O)CO)O[C@@](OCCCNC(=O)OCc2ccccc2)(C(=O)O)C[C@@H]1O[C@H]1O[C@H](CO)[C@H](O)[C@H](O)[C@H]1O; conditions: other: apparent, varying acceptor, 10 mM CMP-Neu5Ac, pH 8.0, 30° C.
[8] = tested on: CC(=O)N[C@H]1[C@H]([C@H](O)[C@H](O)CO)O[C@@](OC[C@H]2O[C@H](O[C@H]3C[C@](OC[C@H]4O[C@H](O[C@H]5C[C@](OC[C@H]6O[C@H](O[C@H]7C[C@](OCCCNC(=O)OCc8ccccc8)(C(=O)O)O[C@@H]([C@H](O)[C@H](O)CO)[C@@H]7NC(C)=O)[C@H](O)[C@@H](O)[C@H]6O)(C(=O)O)O[C@@H]([C@H](O)[C@H](O)CO)[C@@H]5NC(C)=O)[C@H](O)[C@@H](O)[C@H]4O)(C(=O)O)O[C@@H]([C@H](O)[C@H](O)CO)[C@@H]3NC(C)=O)[C@H](O)[C@@H](O)[C@H]2O)(C(=O)O)C[C@@H]1O[C@H]1O[C@H](CO)[C@H](O)[C@H](O)[C@H]1O; conditions: other: apparent, varying acceptor, 10 mM CMP-Neu5Ac, pH 8.0, 30° C.

| Substance | kcat/Km [1] [M⁻¹ s⁻¹] | Km [2] [µM] | kcat [2] [s⁻¹] | kcat/Km [2] [M⁻¹ s⁻¹] | Km [3] [µM] | kcat [3] [s⁻¹] | kcat/Km [3] [M⁻¹ s⁻¹] | kcat [4] [s⁻¹] | Km [5] [µM] | kcat [5] [s⁻¹] | kcat/Km [5] [M⁻¹ s⁻¹] | kcat [6] [s⁻¹] | Km [7] [µM] | kcat [7] [s⁻¹] | kcat/Km [7] [M⁻¹ s⁻¹] | kcat [8] [s⁻¹] |
| --- | --- | --- | --- | --- | --- | --- | --- | --- | --- | --- | --- | --- | --- | --- | --- | --- |
| NmSiaDW galactosyltransferase activity (Neisseria meningitidis) | 47 | 890 ± 100 | 8.8 ± 0.4 | 10000 | 100 ± 20 | 5.3 ± 0.2 | 51000 |  |  |  |  |  |  |  |  |  |
| NmSiaDW sialyltransferase activity (Neisseria meningitidis) |  |  |  |  |  |  |  | 7.03 to 11.9 | 240 ± 40 | 23.1 ± 1.1 | 97000 | 7.03 to 11.9 | 180 ± 40 | 9.76 ± 0.55 | 55000 | 7.03 to 11.9 |
